This note sets out measurements from publication PMC4705524.

Assay [1] addresses Pfs25-IMX313 (HEK293 cells, pENTR4-LPTOS shuttle plasmid) (Plasmodium falciparum | chicken) (UniProt P13829). The assay is described as follows: non-reducing SDS-PAGE with western blot; 15 μL supernatant of transfected HEK293 cells per lane, reduced and non-reduced conditions, detected with anti-Pfs25 mAb 4B7.
Assay [2] addresses Pfs25-IMX313 protein-nanoparticle (P. pastoris) (Plasmodium falciparum | chicken) (UniProt P13829). The experiment in a line: non-reducing SDS-PAGE with western blot; protein purified from P. pastoris supernatant, 500 ng per lane, reduced and non-reduced conditions, detected with anti-Pfs25 mAb 4B7.

In the case of “Pfs25-IMX313 (HEK293 cells, pENTR4-LPTOS shuttle plasmid) (from UniProt P13829 22-193)”, the stoichiometry N in assay [1] was 7.
Consider “Pfs25-IMX313 protein-nanoparticle (P. pastoris) (from UniProt P13829 22-193)”, for which the stoichiometry N in assay [2] turned out to be 7.
